Substrate: CC(C)C=O
Assay: Alcohol dehydrogenase kinetic assay, Ec_YqhD
Type: biochemical, E. coli
Settings: other: NADPH as cofactor; conversion to isobutanol
Description: E. coli strain GEVO1745 was transformed by electroporation with one of plasmids pGV1705-A, pGV1748-A, pGV1749-A, or pGV1778-A. 50 mL of TB medium (23.1 g/L KH2PO4, 125.4 g/L K2HPO4, 12 g/L Bacto-tryptone, 24 g/L yeast extract, 4 ml/L glycerol) were inoculated to an initial OD600 of 0.2 using a 3 mL overnight LB culture of a single colony. The 50 mL culture was allowed to grow for 3-4 hrs at 250 rpm and 37° C. Protein expression was induced at an OD600 of 2-2.5 by the addition of IPTG to a final concentration of 1 mM. After the addition of IPTG, protein expression was allowed to continue for 20-24 hours at 225 rpm and 25° C.
Alcohol dehydrogenase (ADH) activity was assayed kinetically by monitoring the decrease in NAD(P)H concentration by measuring the absorbance at 340 nm. A reaction buffer was prepared containing 0.1 M potassium phosphate, 0.4 mM NAD(P)H, 10 mM isobutyraldehyde, 1 mM DTT, and 1 mM PMSF. Cell pellets were resuspended in 0.1 M potassium phosphate buffer containing 1 mM DTT and 1 mM PMSF at one fifth of the culture volume, i.e. 10 mL resuspension buffer for cell pellet from a 50 mL culture. The resuspended cells were lysed by sonication for 1 min with a 50% duty cycle. The reaction was initiated by the addition of 0.5 mL of the reaction buffer to 0.5 mL of clarified lysate in a cuvette. […]

B1: E. coli alcohol dehydrogenase Ec_YqhD, SEQ ID NO: 69 (Escherichia coli K-12) (protein)
chain: MNNFNLHTPTRILFGKGAIAGLREQIPHDARVLITYGGGSVKKTGVLDQVLDALKGMDVLEFGGIEPNPAYETLMNAVKLVREQKVTFLLAVGGGSVLDGTKFIAAAANYPENIDPWHILQTGGKEIKSAIPMGCVLTLPATGSESNAGAVISRKTTGDKQAFHSAHVQPVFAVLDPVYTYTLPPRQVANGVVDAFVHTVEQYVTKPVDAKIQDRFAEGILLTLIEDGPKALKEPENYDVRANVMWAATQALNGLIGAGVPQDWATHMLGHELTAMHGLDHAQTLAIVLPALWNEKRDTKRAKLLQYAERVWNITEGSDDERIDAAIAATRNFFEQLGVPTHLSDYGLDGSSIPALLKKLEEHGMTQLGENHDITLDVSRRIYEAAR
B1 gave a Km of 250 µM.

From patent US8097440B1, “Engineered microorganisms capable of producing target compounds under anaerobic conditions” (Gevo, Inc., priority 2008, dated 2012)
